From article PMC3892060

Tests used:
[1] = biological target: AP2μ-eCFP fusion (human (HeLa cDNA library)) (UniProt Q96CW1); test: FRET or BRET; FACS-based FRET; 293 T cells cotransfected with Nef-YFP fusion vectors and AP2μ-CFP; 24 hours later the amount of cells scoring FRET+ measured by flow cytometry
AP2μ-eCFP fusion = AP2μ-eCFP fusion (UniProt Q96CW1); test: FACS-based FRET assay; details: 293T cells cotransfected with Nef-YFP and AP2µ-CFP, measured 24 hours later
[2] = mean and SD of four to nine independent transfections, parent: est. 62, read off a plot

Row | Substance | percent of FRET+ cells (mean) [1] [%] | response (% FRET+ cells) (AP2μ-eCFP fusion; [2]) | response (% FRET+ cells) (AP2μ-eCFP fusion; representative single FACS plot (upper row of panel A), parent: 69.8)
1 | HIV-2 Ben Nef-YFP (natural protein) | < 35 | – | –
2 | SIVmac 239 Nef-YFP G2A | – | 3 | –
3 | SIVmac 239 Nef-YFP Y28A | – | 26 | –
4 | SIVmac 239 Nef-YFP Y28F | – | 32 | 38.1
5 | SIVsm FFm1 Nef-YFP (natural protein) | < 35 | – | –
